In US20030211575A1:

Experiments:
Experiment in all cases: cell-based or functional assay
[1] = target: Shaker H4 K+ channel, N-terminal deletion 6-46, P475H mutant (Drosophila) (UniProt P08510)
[2] = target: Kv2.1 K+ channel P406D mutant (rat) (UniProt P15387)
[3] = target: Shaker H4 K+ channel, N-terminal deletion 6-46, P475K mutant (Drosophila) (UniProt P08510)
[4] = target: Shaker H4 K+ channel, N-terminal deletion 6-46, P475D mutant (Drosophila) (UniProt P08510)
[5] = target: Shaker H4 K+ channel, N-terminal deletion 6-46, P475E mutant (Drosophila) (UniProt P08510)

Measured: block of channel current (two-electrode voltage clamp, Xenopus oocytes); concentration called saturating

Sequence of Shaker H4 K+ channel, N-terminal deletion 6-46, P475D mutant (Drosophila) (P08510 whole entry P475D): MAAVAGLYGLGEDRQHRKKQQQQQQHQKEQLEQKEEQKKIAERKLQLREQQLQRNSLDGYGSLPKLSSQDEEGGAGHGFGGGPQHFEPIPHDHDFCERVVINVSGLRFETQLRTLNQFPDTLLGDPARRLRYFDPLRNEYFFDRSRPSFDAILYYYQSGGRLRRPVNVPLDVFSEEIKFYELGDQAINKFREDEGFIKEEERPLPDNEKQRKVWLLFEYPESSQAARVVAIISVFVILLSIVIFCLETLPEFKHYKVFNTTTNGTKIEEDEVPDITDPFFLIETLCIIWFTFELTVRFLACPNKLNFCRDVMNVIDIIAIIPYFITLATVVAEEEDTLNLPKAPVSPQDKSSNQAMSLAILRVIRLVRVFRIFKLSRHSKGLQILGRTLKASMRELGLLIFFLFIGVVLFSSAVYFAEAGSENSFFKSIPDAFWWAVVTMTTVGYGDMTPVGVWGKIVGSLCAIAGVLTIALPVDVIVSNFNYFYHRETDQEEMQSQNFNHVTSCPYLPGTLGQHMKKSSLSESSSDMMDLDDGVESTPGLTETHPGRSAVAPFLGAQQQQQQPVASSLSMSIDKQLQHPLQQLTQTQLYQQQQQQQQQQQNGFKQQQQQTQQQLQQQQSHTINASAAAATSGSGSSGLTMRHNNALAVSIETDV
Sequence of Shaker H4 K+ channel, N-terminal deletion 6-46, P475E mutant (Drosophila) (P08510 whole entry P475E): as the sequence (P08510 whole entry P475D) above, with D475E counted along it
Sequence of Shaker H4 K+ channel, N-terminal deletion 6-46, P475K mutant (Drosophila) (P08510 whole entry P475K): as the sequence (P08510 whole entry P475D) above, with D475K counted along it
Sequence of Shaker H4 K+ channel, N-terminal deletion 6-46, P475H mutant (Drosophila) (P08510 whole entry P475H): as the sequence (P08510 whole entry P475D) above, with D475H counted along it

agitoxin2 (from UniProt P46111 1-38) (peptide)
1 µM: all assays above
